Test system: AncSZ
Experiment: phosphorylation enrichment, bacterial display (enrichment ratio); higher = better substrate or ligand; peptides without Tyr show the background
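Further: 11-residue human phosphosite peptides and single-mutation variants displayed on the E. coli surface, counted by deep sequencing, each peptide's frequency after selection divided by its frequency in the unselected input library; frequency after pTyr selection over input frequency; kinase dosed for 20-30% of maximal phosphorylation in three min.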

Sequence	phosphorylation enrichment
QLHEHCKIHKE [NSMAF_Y626_Y626C]	0.682
QPRDIYHQTWA [GBA_Y244_G241R]	0.821
TKHTFYKQPMF [GBA_Y451_D448H]	1
KAPPTYDNVLQ [CYP3A4_Y347_T349N]	0.606
RGRKVYLEGGF [PRIM2_Y201_D204G]	0.787
NTFEKYLEEEF [TF_Y669_G671E_YF]	1.25
FPPISYLHAIS [MVD_Y276_N278H]	0.984
GVTLLYYGRDN [ADGRD1_Y85_Y89D]	0.923
SLGSPYGQPPC [PDLIM4_Y137_R142C]	0.659
DEYLEHRRIVG [FAM221A_Y20_Y20H]	0.764
TNQVICLNPPI [DYNC1H1_Y970_Y970C]	0.842
DFPGNYSGYDD [POLR1C_Y33]	1.3
WYQTKYEELQI [KRT6B_Y360]	1.11
AFPVSYSSPGA [RET_Y687_S690P]	0.704
RFVVLYDAELT [ERCC4_Y581_YF]	1.58
VLTSKYLGGGG [HBA1_Y141_R142L]	0.382
AGAIIYTSRFQ [PFAS_Y538]	0.748
ALAHKYRGGGG [HBD_Y146_H147R]	0.404
EYQLPYYNMVP [BMPR1A_Y457]	6.15
EKFVPYFDLFM [IPO5_Y530_YF]	1.33
KGRGEYFAIKA [PRKCD_Y374]	0.702
KVASVYEALGF [NT5C_Y65_P68L]	0.88
FADIAYNYRRG [PAH_Y166_H170R]	0.638
RKKEEYKMAPF [F8_Y1990_L1994P_YF]	0.574
LADMNYVHRDL [EPHB2_Y742]	1.51
QPGTDYKIFRF [FN1_Y1970_L1974R_YF]	1.77
QSSALYEDCFL [ASS1_Y83_R86C_YF]	1.92
HKLSYNEYDFE [BTK_Y40_Y40N]	1.27
SVTCRYSPALN [TP53_Y126_T125R]	0.864

Molecular target: EPHB1 (UniProt P54762)
Sequence (P54762 whole entry, looked up): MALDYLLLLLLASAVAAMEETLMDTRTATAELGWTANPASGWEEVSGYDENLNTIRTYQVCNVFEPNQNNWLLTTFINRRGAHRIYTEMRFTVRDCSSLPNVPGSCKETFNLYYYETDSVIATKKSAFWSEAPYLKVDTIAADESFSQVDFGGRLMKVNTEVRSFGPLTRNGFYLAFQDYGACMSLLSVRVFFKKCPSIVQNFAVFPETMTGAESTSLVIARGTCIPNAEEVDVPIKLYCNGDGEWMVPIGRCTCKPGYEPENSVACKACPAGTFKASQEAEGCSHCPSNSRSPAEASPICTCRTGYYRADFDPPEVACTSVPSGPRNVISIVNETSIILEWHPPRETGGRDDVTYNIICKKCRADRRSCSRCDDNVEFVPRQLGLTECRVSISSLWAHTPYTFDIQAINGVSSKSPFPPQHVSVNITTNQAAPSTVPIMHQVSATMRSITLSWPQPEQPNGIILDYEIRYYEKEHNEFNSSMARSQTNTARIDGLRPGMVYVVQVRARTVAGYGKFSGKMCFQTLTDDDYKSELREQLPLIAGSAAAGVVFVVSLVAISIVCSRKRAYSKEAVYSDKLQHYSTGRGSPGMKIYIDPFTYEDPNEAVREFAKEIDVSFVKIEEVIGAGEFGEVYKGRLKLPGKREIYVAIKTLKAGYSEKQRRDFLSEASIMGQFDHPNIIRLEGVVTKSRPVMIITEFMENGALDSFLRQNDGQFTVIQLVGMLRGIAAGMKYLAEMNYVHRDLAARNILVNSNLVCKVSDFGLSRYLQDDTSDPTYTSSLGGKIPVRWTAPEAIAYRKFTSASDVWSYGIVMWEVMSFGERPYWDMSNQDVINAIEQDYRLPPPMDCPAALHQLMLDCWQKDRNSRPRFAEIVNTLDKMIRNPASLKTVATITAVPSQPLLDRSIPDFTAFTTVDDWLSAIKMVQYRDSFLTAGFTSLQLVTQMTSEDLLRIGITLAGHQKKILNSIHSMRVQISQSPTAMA
Experiment: as above

Sequence	phosphorylation enrichment
QLHEHCKIHKE [NSMAF_Y626_Y626C]	0.343
QPRDIYHQTWA [GBA_Y244_G241R]	0.574
TKHTFYKQPMF [GBA_Y451_D448H]	0.429
KAPPTYDNVLQ [CYP3A4_Y347_T349N]	6.04
RGRKVYLEGGF [PRIM2_Y201_D204G]	0.532
NTFEKYLEEEF [TF_Y669_G671E_YF]	0.6
FPPISYLHAIS [MVD_Y276_N278H]	0.434
GVTLLYYGRDN [ADGRD1_Y85_Y89D]	0.605
SLGSPYGQPPC [PDLIM4_Y137_R142C]	0.453
DEYLEHRRIVG [FAM221A_Y20_Y20H]	1.95
TNQVICLNPPI [DYNC1H1_Y970_Y970C]	0.589
DFPGNYSGYDD [POLR1C_Y33]	1.31
WYQTKYEELQI [KRT6B_Y360]	0.454
AFPVSYSSPGA [RET_Y687_S690P]	0.442
RFVVLYDAELT [ERCC4_Y581_YF]	1.38
VLTSKYLGGGG [HBA1_Y141_R142L]	0.292
AGAIIYTSRFQ [PFAS_Y538]	0.486
ALAHKYRGGGG [HBD_Y146_H147R]	0.311
EYQLPYYNMVP [BMPR1A_Y457]	2.81
EKFVPYFDLFM [IPO5_Y530_YF]	1.06
KGRGEYFAIKA [PRKCD_Y374]	0.943
KVASVYEALGF [NT5C_Y65_P68L]	8.22
FADIAYNYRRG [PAH_Y166_H170R]	0.493
RKKEEYKMAPF [F8_Y1990_L1994P_YF]	0.299
LADMNYVHRDL [EPHB2_Y742]	0.762
QPGTDYKIFRF [FN1_Y1970_L1974R_YF]	0.754
QSSALYEDCFL [ASS1_Y83_R86C_YF]	10.4
HKLSYNEYDFE [BTK_Y40_Y40N]	0.986
SVTCRYSPALN [TP53_Y126_T125R]	0.508

Molecular target: EPHB2 (UniProt P29323)
Sequence (P29323 whole entry, looked up): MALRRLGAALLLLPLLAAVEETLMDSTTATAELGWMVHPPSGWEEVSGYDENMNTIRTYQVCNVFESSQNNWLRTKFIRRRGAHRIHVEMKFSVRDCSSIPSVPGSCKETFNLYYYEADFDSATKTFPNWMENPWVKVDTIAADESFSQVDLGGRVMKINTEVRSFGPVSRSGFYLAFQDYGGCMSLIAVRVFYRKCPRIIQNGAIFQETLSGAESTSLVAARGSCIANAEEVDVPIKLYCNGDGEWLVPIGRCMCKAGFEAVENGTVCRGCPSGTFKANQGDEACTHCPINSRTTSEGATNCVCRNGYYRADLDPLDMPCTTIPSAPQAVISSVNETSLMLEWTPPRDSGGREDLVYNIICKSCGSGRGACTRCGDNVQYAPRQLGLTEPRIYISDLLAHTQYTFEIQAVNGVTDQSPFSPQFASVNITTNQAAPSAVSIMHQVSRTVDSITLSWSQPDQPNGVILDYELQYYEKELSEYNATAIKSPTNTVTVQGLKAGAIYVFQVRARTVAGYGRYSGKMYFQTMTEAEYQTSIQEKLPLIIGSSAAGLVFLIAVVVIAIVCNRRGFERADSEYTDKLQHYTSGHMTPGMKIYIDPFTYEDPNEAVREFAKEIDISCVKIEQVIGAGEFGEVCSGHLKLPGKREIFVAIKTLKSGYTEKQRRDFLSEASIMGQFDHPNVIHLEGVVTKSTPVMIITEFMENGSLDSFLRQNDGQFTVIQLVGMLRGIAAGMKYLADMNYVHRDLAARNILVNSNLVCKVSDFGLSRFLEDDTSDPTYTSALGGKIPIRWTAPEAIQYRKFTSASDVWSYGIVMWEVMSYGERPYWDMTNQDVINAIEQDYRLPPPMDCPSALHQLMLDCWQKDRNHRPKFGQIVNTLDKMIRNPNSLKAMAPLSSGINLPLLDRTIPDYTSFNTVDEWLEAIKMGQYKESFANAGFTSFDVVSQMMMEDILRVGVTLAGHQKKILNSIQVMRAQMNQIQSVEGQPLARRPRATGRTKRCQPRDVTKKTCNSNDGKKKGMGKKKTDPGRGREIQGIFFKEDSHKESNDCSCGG
Experiment: as above

Sequence	phosphorylation enrichment
QLHEHCKIHKE [NSMAF_Y626_Y626C]	0.422
QPRDIYHQTWA [GBA_Y244_G241R]	0.627
TKHTFYKQPMF [GBA_Y451_D448H]	0.558
KAPPTYDNVLQ [CYP3A4_Y347_T349N]	3.6
RGRKVYLEGGF [PRIM2_Y201_D204G]	0.431
NTFEKYLEEEF [TF_Y669_G671E_YF]	0.61
FPPISYLHAIS [MVD_Y276_N278H]	0.579
GVTLLYYGRDN [ADGRD1_Y85_Y89D]	0.629
SLGSPYGQPPC [PDLIM4_Y137_R142C]	0.491
DEYLEHRRIVG [FAM221A_Y20_Y20H]	0.679
TNQVICLNPPI [DYNC1H1_Y970_Y970C]	0.54
DFPGNYSGYDD [POLR1C_Y33]	1.3
WYQTKYEELQI [KRT6B_Y360]	0.639
AFPVSYSSPGA [RET_Y687_S690P]	0.478
RFVVLYDAELT [ERCC4_Y581_YF]	1.15
VLTSKYLGGGG [HBA1_Y141_R142L]	0.326
AGAIIYTSRFQ [PFAS_Y538]	0.674
ALAHKYRGGGG [HBD_Y146_H147R]	0.362
EYQLPYYNMVP [BMPR1A_Y457]	3.64
EKFVPYFDLFM [IPO5_Y530_YF]	0.652
KGRGEYFAIKA [PRKCD_Y374]	0.905
KVASVYEALGF [NT5C_Y65_P68L]	4.25
FADIAYNYRRG [PAH_Y166_H170R]	0.458
RKKEEYKMAPF [F8_Y1990_L1994P_YF]	0.261
LADMNYVHRDL [EPHB2_Y742]	0.565
QPGTDYKIFRF [FN1_Y1970_L1974R_YF]	0.567
QSSALYEDCFL [ASS1_Y83_R86C_YF]	7.25
HKLSYNEYDFE [BTK_Y40_Y40N]	0.824
SVTCRYSPALN [TP53_Y126_T125R]	0.446

Molecular target: FGFR1 (UniProt P11362)
Sequence (P11362 whole entry, looked up): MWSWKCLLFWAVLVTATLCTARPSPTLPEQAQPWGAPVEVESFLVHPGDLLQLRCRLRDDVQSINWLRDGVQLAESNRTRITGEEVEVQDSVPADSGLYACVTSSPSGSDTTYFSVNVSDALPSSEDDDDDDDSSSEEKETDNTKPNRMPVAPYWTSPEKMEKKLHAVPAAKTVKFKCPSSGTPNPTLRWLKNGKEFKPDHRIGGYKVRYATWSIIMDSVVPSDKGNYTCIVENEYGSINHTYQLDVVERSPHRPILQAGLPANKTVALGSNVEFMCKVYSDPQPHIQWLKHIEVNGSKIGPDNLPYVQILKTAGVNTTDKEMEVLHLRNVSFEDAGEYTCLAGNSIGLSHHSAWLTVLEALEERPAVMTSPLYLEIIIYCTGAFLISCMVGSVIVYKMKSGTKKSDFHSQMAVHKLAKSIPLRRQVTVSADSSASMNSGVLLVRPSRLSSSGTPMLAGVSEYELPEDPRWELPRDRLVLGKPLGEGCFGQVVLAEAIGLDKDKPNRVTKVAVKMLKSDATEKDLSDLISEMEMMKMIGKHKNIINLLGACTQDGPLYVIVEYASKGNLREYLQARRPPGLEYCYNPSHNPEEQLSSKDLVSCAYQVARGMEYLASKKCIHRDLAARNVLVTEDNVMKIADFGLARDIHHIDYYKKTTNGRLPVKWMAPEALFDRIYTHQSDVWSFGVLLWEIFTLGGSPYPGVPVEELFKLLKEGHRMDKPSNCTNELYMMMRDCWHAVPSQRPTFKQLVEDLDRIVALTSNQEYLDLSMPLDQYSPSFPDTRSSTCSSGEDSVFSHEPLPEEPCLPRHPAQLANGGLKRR
Experiment: as above

Sequence	phosphorylation enrichment
QLHEHCKIHKE [NSMAF_Y626_Y626C]	0.745
QPRDIYHQTWA [GBA_Y244_G241R]	2.91
TKHTFYKQPMF [GBA_Y451_D448H]	0.539
KAPPTYDNVLQ [CYP3A4_Y347_T349N]	0.452
RGRKVYLEGGF [PRIM2_Y201_D204G]	0.355
NTFEKYLEEEF [TF_Y669_G671E_YF]	0.407
FPPISYLHAIS [MVD_Y276_N278H]	0.602
GVTLLYYGRDN [ADGRD1_Y85_Y89D]	0.543
SLGSPYGQPPC [PDLIM4_Y137_R142C]	0.465
DEYLEHRRIVG [FAM221A_Y20_Y20H]	0.6
TNQVICLNPPI [DYNC1H1_Y970_Y970C]	0.53
DFPGNYSGYDD [POLR1C_Y33]	0.671
WYQTKYEELQI [KRT6B_Y360]	0.503
AFPVSYSSPGA [RET_Y687_S690P]	0.423
RFVVLYDAELT [ERCC4_Y581_YF]	0.841
VLTSKYLGGGG [HBA1_Y141_R142L]	0.448
AGAIIYTSRFQ [PFAS_Y538]	0.398
ALAHKYRGGGG [HBD_Y146_H147R]	0.422
EYQLPYYNMVP [BMPR1A_Y457]	14.1
EKFVPYFDLFM [IPO5_Y530_YF]	1.74
KGRGEYFAIKA [PRKCD_Y374]	4.32
KVASVYEALGF [NT5C_Y65_P68L]	0.607
FADIAYNYRRG [PAH_Y166_H170R]	0.39
RKKEEYKMAPF [F8_Y1990_L1994P_YF]	0.602
LADMNYVHRDL [EPHB2_Y742]	0.714
QPGTDYKIFRF [FN1_Y1970_L1974R_YF]	1.22
QSSALYEDCFL [ASS1_Y83_R86C_YF]	0.852
HKLSYNEYDFE [BTK_Y40_Y40N]	0.756
SVTCRYSPALN [TP53_Y126_T125R]	0.413

— the supplement of paper PMC10065799, “High-throughput profiling of sequence recognition by tyrosine kinases and SH2 domains using bacterial peptide display” (eLife, 2023)
